IntAct's records for PubMed 25751138

B1: DASH complex subunit DAM1 (Saccharomyces cerevisiae), P53267 (parent)
chain: MSEDKAKLGTTRSATEYRLSIGSAPTSRRSSMGESSSLMKFADQEGLTSSVGEYNENTIQQLLLPKIRELSDSIITLDSNFTRLNFIHESLADLNESLGSLLYGIMSNSWCVEFSQAPHDIQDDLIAIKQLKSLEDEKNNLVMELSNMERGIKRKKDEQGENDLAKASQNKQFNQPLFPSSQVRKYRSYDNRDKRKPSKIGNNLQVENEEDYEDDTSSEASFVLNPTNIGMSKSSQGHVTKTTRLNNNTNSKLRRKSILHTIRNSIASGADLPIENDNVVNLGDLHPNNRISLGSGAARVVNGPVTKNRNSMFSGRAERKPTESRHSVAKKTEKKINTRPPFR
B2: DASH complex subunit DAM1 (Saccharomyces cerevisiae), P53267 (parent)
chain: B1 chain
partner: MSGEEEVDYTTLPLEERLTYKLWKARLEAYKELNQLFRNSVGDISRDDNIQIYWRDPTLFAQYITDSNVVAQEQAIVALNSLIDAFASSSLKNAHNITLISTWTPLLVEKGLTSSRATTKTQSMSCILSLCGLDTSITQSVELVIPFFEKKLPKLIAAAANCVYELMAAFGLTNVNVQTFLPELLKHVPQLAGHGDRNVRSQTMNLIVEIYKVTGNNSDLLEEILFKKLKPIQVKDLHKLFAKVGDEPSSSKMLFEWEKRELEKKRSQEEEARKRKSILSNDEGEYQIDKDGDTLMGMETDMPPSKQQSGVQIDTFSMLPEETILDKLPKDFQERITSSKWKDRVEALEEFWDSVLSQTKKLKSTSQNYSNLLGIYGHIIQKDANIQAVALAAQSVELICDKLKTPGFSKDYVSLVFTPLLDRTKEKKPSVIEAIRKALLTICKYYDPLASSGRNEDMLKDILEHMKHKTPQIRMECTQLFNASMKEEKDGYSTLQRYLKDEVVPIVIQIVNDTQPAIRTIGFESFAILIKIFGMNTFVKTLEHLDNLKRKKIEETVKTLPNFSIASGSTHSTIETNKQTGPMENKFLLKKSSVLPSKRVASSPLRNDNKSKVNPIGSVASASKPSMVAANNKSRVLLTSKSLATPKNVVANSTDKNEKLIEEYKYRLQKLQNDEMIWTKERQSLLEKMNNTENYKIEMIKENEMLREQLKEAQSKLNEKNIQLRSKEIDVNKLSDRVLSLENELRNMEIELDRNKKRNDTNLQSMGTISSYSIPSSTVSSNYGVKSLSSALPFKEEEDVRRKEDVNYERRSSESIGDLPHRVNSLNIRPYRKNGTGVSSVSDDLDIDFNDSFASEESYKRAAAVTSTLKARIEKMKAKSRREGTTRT

Variants of: B1
Conditions: with ndc80_yeast NDC80, P40460
Chain of ndc80_yeast NDC80, P40460 (P40460 whole entry): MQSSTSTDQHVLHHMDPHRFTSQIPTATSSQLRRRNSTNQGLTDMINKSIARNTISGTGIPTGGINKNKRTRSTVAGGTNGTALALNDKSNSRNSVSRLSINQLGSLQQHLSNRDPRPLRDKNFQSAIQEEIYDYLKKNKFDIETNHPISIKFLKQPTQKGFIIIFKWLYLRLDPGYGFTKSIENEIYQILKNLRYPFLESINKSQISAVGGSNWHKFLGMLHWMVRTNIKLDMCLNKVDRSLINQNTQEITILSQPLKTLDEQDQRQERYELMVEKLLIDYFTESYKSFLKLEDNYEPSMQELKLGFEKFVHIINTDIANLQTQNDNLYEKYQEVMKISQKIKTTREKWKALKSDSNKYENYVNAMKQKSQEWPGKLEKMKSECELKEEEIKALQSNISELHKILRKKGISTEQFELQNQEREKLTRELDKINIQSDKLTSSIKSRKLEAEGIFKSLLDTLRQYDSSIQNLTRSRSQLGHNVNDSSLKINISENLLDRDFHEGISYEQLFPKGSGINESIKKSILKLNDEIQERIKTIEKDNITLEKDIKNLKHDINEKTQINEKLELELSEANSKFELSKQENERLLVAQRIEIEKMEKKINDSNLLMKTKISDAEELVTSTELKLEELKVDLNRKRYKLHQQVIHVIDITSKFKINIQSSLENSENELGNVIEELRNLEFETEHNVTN

effect of a mutation on the interaction | Variant
decreasing interaction strength | S257D;S265D;S292D;S327D

Variants of: B2
Conditions: with stu2_yeast STU2, P46675

effect of a mutation on the interaction | Variant
disrupting interaction strength | S257D;S265D;S292D;S327D
